Data: the nanobody polyreactivity screen of Harvey et al. (2022)

assay: yeast display, Sf9 membrane polyspecificity reagent, FACS + sequencing; frameworks hold sequencing errors
Procedure, shortened: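 After 36–48 hours of galactose induction, yeast (Saccharomyces cerevisiae BJ5465) displaying a synthetic nanobody library were stained at 4 °C for 1 hour with 10% biotinylated, detergent-solubilized Sf9 membrane reagent. Streptavidin microbeads enriched the stained cells before FACS sorting into low and high (top ~1%) gates on anti-HA and streptavidin fluorescence. Each clone's polyreactivity label reflects its gate of origin.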

Row | Sequence | polyreactivity (PSR sort gate)
1 | QVQLVESGGGLVQAGGSLRLICAASGSIFGLYVMGWYRQAPGKERELVATITSGGSTYYADSVKGRFTISRDNAKNTVYLQMNSLKPEDTAVYYCNTRWTPSREYDYWGQGTQVTVSS | low polyreactivity
2 | QVQLVESGGGLVQAGGSLRLSCAASGLIFVSYAMGWYRQAPGKERELVASITDSDSSTYYADSVKGRFTISRDNAKNTVYLQMNSLKPEDTAVYYCATGGRTEIWYPTLDYWGQGTQVTVSS | low polyreactivity
3 | QVHLVESGGGLVQAGGSLRLSCAASGLIFYFYAKGWYRQAPGKERELVAGITNGGSTNYADSVKGRFTISRDNAKNTVYLQMNSLKPEDTAVYYCAAQYYTVRSTYDYWGQGTQVTVSS | high polyreactivity
4 | QVQLVESGGGLLQAGGSLRLSCAASGLTFAFYVMGWYRQAPGKERELVAAISASGASTYYADSVKGRFTISRDNAKNTVYLQMNSLKPEDTAVYYCAADYAVYSFTEFNYWGQGTQVTVSS | high polyreactivity
5 | QVQLVESGGGLVQAGGSLRLSCAASGRIFYSYAMGWYRQAPGKERELVAGINWRGSNTYYADSVKGRFTISRDNAKNTVYLQINSLKPEDTAVYYCKAGRRQDYRYNYWGQGTQVTVSS | high polyreactivity
6 | QVQLLESGGGLVQAGGSLRFTGAASGSTIAGNAMVWYRHEPGKERELVAVITRGGSTNYADSVKGRFTISRDNAKNNVYLQMNSLKPEDTAVYYCARYRFLLDYWRGGYYWGQGTQVTVSS | high polyreactivity
7 | QVQLVESGGVLVQAGGSLRLTCAASGSILYLNAMGWYRQAPGKERELVAAITWSGGSTSYADSVKGRFTISRDNAKYTVSLQMNSLKPEDTAVYYCASGRRGYGGVYYAGGYWGQGTQVTVSS | low polyreactivity
8 | QVQLVESGGGLVQAGGSLRLSCAASGSTFGYNDMGWYRQAPGKERELVAAISVSDSSTYYADSVKGRFTISRDNAKNTVYLQMNSLKPEDTAVYYCAAYIYYNYSRQYWYDYWGQGTQVTVSS | low polyreactivity
9 | QVQLVESGGGLVQAGGSLRLSCAASGFTFASNAMGWYRPAPWKERELVAGISRTGTTTYYADSVKGRFTISRDNAKNTVYLQMNSLKPEDTAVYYCAASKQAVKYRSQRYYYWGQGTQVTVSS | high polyreactivity
10 | QVQLVESGGGLVQAGGSLRLSCAASGRIFRYYAMGWYRPAPGKERELVAAITRSGGITYYADSVKGRFTISRDNAKNTVYLQLNSLKPEDTAVYYCAVRGAGWPSVRAFGYDYWGQGTQVTVSS | high polyreactivity
11 | QVQLVESCGGLVQAGGSLRLSCAASGFIFRIYAMGWYRQAPGKERELVAAITWSGGRTFYADSVKGRFTISRDNAKNTVYLQMNSLKPEDTAVFYCAARGRSSGFGYWGQGTQVTVSS | high polyreactivity
12 | QVQLVESGGGLVQAGGSLRLSCAASGRIFKVNTMGWYRQAPGKERELVASIRGGGSTNYADSVKGRFTISRDNAKNTVNLQMHSPKPEDTAVYYCAAGTSKPTPIYGYWGQGTQVTVSS | low polyreactivity
13 | QVQHVESGGGLVQAGGSLRLSCAASVRTFYTYAMGRDRQAPGKERELVAAISLSGTRTYYADSVKGRFTISRDNAKNTVYLQMNSLNPEDTAVYYCAADRFNKPYYYWGQGTQVTVSS | high polyreactivity
14 | QVQLVESGGGLVQAGGSLRLSCAASGRTFPGNAMGWYRQAPGKERELVAAISYRGGSTYYADSVKGRFTISRDNAKNTVYLQMNSLKPEDTAVYYCAAASERTGYYYWGQGTQVTVSS | high polyreactivity
15 | QVQLVESGGGLVQAGGSLRLICAASGYNCKYYAMGWYRAAPGKERELVASITSGGRTNYADSVKGRFTISRDNAKNTVYLQMNSLKPEDTAVYYCASRKPWKFVRTYTYDYWGQGTQLTVSS | high polyreactivity
16 | QVQLVESGGGLVQAGGSLRLSCAASGRIFEHYAMGWYRQAPGKERELVASISSGDRTNYADSVKGRFTISRDNAKNTVYLQMNSLKPEDTAVYYCNALQLYGKGKRVGFGYWGQGTQVTVSS | low polyreactivity
17 | QVQLVESGGGLVQAGGSLRLSCAASGSIFGGYAMGWYRQAPGKERELVAAITWGGGSTYYADSVKGRFTISRDNAKNTVYLQMNSLKPEDTAVYYCAADRSWYDWEDDYWGQGTQVTVSS | low polyreactivity
18 | HVQLQESAGGLVQAGGSLRLSCAASGTISSREAMGWYSQAPGKERDFVATIASGTTTYYADSVKGSFTISRDNAENTVYLQTNTLKPEDTAVYYCAAPTIQIYPFYYWGHGTQVTVSS | high polyreactivity
19 | QVQLVESGGGLVQAGGSLRLSCAASGFTFSKYVKGLYRQAPGKERELVAAISKRGGSTYYADSVKGRFTISRDYAKNTVYLQMNSLKPEDTAVYYCAARYYLEQILEKDYWVQGTQVTVSS | high polyreactivity
20 | QVQLVESGGGLVQAGGSLRLSCAASGRIFQVNAMGWYRQAPGKERELVAAITYSGGTTYYADSVKGRFTISRDNAKNTVYLQMNSLKPEDTAVYYCNAEYRWPYWGQWYFKGYDYWGQGTQVTVSS | low polyreactivity
21 | QVQLVESGGGLVQAGGSLRLSCAASGRIITYNAMGWYRQAPGKERELVAAISTTGGRTYYADSVKGRFTISRDNAKNTVYLQMNSLKPEDTAVYYCNAVLKRPLAYHVTYDYWGQGTQVTVSA | high polyreactivity

Row | Sequence | polyreactivity (PSR sort gate)
22 | QVQLVESGGGLVHAGGSLRLSCAASGFTFGGYAKGWYIQAPGKERELVAAISQSGGRTYYADSVKGRFTISRDHAKNTFYLQMNSLKPEDTAVYYCAKPSTTYYQRGDYWGQGTQVTVSS | high polyreactivity
23 | QDQLVESGGGLVQAGCSLRLSCAASGLIFGWYAMGWYRQAPGKERELVASISRSGGSTYYADSVKGRFTISRDNAKNTVYLQMNSLITEDTAVYYCAALNYVFRLTYGYDYWGQGTQVTVSS | high polyreactivity
24 | QVQLVESGGGLVQAGGSLRLSCPASGSIFYYYAMGWYRQEPGKERELVATITWNGAGTFYADSVKGRFTISRDNAKNTVYLQMNSLKPEDTAVYYCAASWYGESGYDYWGQGSQVTVSS | low polyreactivity
25 | QVQLVESGGGLVQAGGSLRLSCAASGFTFYRYAMGWYRQAPGKERELVARISWSGGSTYYADSVKGRFTISRDNAKNTVYLQMNSLKPEDTAVYYCNARRLFESWKYDYWGQGTQVTVSS | high polyreactivity
26 | QVQLVESGGGLVQSGGSLRLSCAASGRTFRYYVMGWYRQAPGKERELVADISRGGGRTRYADSVKGRFTISRDNAKNTVYLQMNSLKRDDTAVYYCGARSYSGQFGYWGQGTQVTVSS | high polyreactivity
27 | QVQLVESGGGLVQAGGSLRLSCAASGSIFVTYAMGWYRQAPGKERELVASISWRGVSTRYADSVKGRFTISRDNAKNTVYLQMNSLKPEDTAVYYCAARVTSHMYYWGQGTQVTVSS | high polyreactivity
28 | QVQLVESGGGLVQAGGSLRLSCAASGRTFLPNAMGWYRQAPGKERELVAAINWRGASTYYADSVKGRFTISRDNAKNTVYLQMNSLKPEDTAVYYCAVDSHYQSYYYRRYDYWGQGTQVTVSS | low polyreactivity
29 | QVQLVESGGGLVQAGGSLRLSCAASGRIFGLNAMGWYRQAPGKERELVAAITGSVGSTYYADSVKGRFTISRDNAKNTVYLQMNSLKPEDTAVYYCNAEYDSRRSSYYRHFNYWGQGTQVTVSS | low polyreactivity
30 | QVQLVESGGGLVQAGGSLRLSFSASGSTFTSNAMGWYRQAPGKERELVASISGSGGRTYYADSVKGRFTISRDNAKNTVYLQMNSLKPEDTAVYYCNAESRNLYSTQFDYWGQGTQVTVSS | low polyreactivity
31 | QVQLVESGGGLVQAGGSLRLSCAASGRTFEYYAMGWYRQAPGKERELVAAITYSGDSTYYADSVKGRFTISRDNAKNTVYLQMNSLKPEDTAVYYCAADWSSLKDDYWGQGTQVTVSS | low polyreactivity
32 | QVQHVESGGGLVQAGGSLRLSCAASGRIFGWYAMGWYRQAPGKERELVAVISWRGRTYYADSVKGRFTISRDNAKNTVYLQMNSLKPEDTAVYYCNARSRSAYDYWGQGTQVTVSS | high polyreactivity
33 | QVQLVESGGGLVQAGGSLRLSCAASGSIFYVYAMGWYRQAPGKERELVASISWGDSSTYYADSVKGRFTISRDNAKNTVYLQMNSLKPDDTAVYYCAADEYRQYALYDYWGQGTQVTVSS | low polyreactivity
34 | QVQLVESGGGLVQAGGSLRLSCAASGRIYAYYPMGWYRQAPGKERELVAAISRGGGSTSYADSVKGRFTISRDNAKNTVYLQMNSLKPEDTAVYYCAADTRSYLVFTRYFRAYRRYDYWGQGTQVTVSS | low polyreactivity
35 | QVQLVESGGGLVQAGGSLRLSCAASGGIVSINAMGWYRQAPGKERELVAAIRWNSGRTYYADSVKGRFTISRDNAKNTVYIQMNSLKPEDTAVYYCAVRDYISWEDYYWGQGTQVTVSS | high polyreactivity
36 | QVQLVESGGGLVQAGGSLRLSCAASGRIFYFYAMGWYRQAPGKERELVAAISTSGGSTYYADSVKGRFTISRDNAKNTVYLQMNRLKPEDTAVYYCASRFRYYGSEYDYWGQGTQVTVSS | low polyreactivity
37 | QVQLVESGGGLVQAGGSLRLSCAASGSTFSFYAMGWYRQAPGKERELVAAITWTTGSTYADSVKGRFTISRDNAKNTVYLQMNSLKPEDTAVYYCAAKKFRRSRDSYYWGPGTQVTVSS | high polyreactivity
38 | QVQLVESGGGLVQAGGSLRLSCAASGSTIRSNAMGWYRQEPGKERELVAAISRTGGRTYYADSVKGRFTISRDNAKNTVYLQMNSLKPEDTAVYYCARPDKGLEYSENYYWGQGTQVTVSS | high polyreactivity
39 | QVQLVESGGGLVQAGGSLRLSCAASGFTFGWYAMGWYRQAPGKEREFVATITYSGGSTYYADSVKGRFTISRDNAKNTVYLQMNSLKPEDTAVYYCAAARYWYRRFDYWGQGTQVTVSS | high polyreactivity
40 | QVQRVESGGGLVQAGGSLRLSCAASGIIFQSYAMGWYRQAPGKERELVAAISRRGRRTYYADSVKGRFTFSRDNAKNTVDLQMTSLKPEDTAVYYCADRYRYAPYDYWGQGTQVTVSS | high polyreactivity
41 | QVQLVESGGGLVQAGGSLRLSCAASGRIFAINTMGWYRQAPGKERELVAAINNGGSTNYADSVKGRFTISRDNAKNTVYLQMNSLKPEDTAVYYCAAEGLPYVRVFDFVSRYDYWGQGTQVTVSS | low polyreactivity
